From patent publication US20260125457A1 (Janssen / Centocor, published 2026)

T1: CALRins5 (mutant calreticulin, 5 base pair insertion, Type 2) expressed with MPL on engineered cancer cells (UniProt P27797 18-417)
T1 construct: whole, on cells; On the cell surface in complex with MPL; also called OCI-M2 MPL CALRins5
T1 sequence (looked up): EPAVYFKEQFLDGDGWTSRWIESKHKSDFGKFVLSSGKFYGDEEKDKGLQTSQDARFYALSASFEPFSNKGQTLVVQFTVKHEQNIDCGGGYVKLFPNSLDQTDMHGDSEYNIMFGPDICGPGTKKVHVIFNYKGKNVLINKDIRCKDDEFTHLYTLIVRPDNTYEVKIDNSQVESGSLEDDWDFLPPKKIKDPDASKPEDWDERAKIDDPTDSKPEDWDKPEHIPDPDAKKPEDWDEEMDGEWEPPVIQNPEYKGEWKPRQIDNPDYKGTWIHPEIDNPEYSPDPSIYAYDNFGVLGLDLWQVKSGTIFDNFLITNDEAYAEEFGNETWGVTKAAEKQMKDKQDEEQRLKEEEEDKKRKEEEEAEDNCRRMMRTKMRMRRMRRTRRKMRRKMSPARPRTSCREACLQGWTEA

T2: wild-type calreticulin (CALRwt) expressed with MPL in engineered cancer cells (UniProt P27797 18-417, limits assumed)
T2 construct: whole, on cells; also called OCI-M2 MPL CALRwt
T2 sequence (looked up): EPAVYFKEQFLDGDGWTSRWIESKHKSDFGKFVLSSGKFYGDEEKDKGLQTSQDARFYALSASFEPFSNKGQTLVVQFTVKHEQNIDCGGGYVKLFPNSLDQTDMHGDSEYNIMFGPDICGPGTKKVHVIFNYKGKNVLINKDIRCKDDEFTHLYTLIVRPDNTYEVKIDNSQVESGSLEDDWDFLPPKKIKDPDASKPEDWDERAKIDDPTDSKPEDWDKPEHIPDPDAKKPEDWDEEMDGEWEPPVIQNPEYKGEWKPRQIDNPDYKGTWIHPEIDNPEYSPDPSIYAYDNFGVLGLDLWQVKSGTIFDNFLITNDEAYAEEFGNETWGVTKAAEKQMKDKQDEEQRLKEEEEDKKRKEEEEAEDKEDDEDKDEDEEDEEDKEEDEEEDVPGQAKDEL

B1: C3CRB133 CALRmut x CD3 bispecific antibody (bispecific antibody, human IgG1, kappa, L234A L235A)
scFv: DIQMTQSPSSLSASVGDRVTITCRARQSIGTAIHWYQQKPGCAPKLLIKYASESISGVPSRFSGSGSGTDFTLTISSLQPEDFATYYCQQSGSWPYTFGQGTKLEIKGGGSGGSGGCPPCGGSGGEVQLVESGGGLVKPGGSLRLSCAASGFTFSRYNMNWVRQAPGKGLEWVSSISTSSNYIYYADSVKGRFTFSRDNAKNSLDLQMSGLRAEDTAIYYCTRGWGPFDYWGCGTLVTVSSEPKSSDKTHTCPPCPAPEAAGGPSVFLFPPKPKDTLMISRTPEVTCVVVSVSHEDPEVKFNWYVDGVEVHNAKTKPREEQYNSTYRVVSVLTVLHQDWLNGKEYKCKVSNKALPAPIEKTISKAKGQPREPQVYTLPPSREEMTKNQVSLWCLVKGFYPSDIAVEWESNGQPENNYKTTPPVLDSDGSFFLYSKLTVDKSRWQQGNVFSCSVMHEALHNHYTQKSLSLSPGK
heavy: DIQMTQSPSTLSASVGDRVTITCQASQSLYNNKNLAWYQQKPGCAPKLLIYYASALASGVPSRFSGSGSGTEFTLTISSLQPDDFATYYCQGEFNCNSADCNSFGGGTKVEIKGGGSGGSGGCPPCGGSGGQVQLVQSGAEVKKPGASVKVSCKASGFSLSSYAMSWVRQAPGQGLEWMGVIDSGGTTYYAQKFQGRVTMTRDTSTSTVYMELSSLRSEDTAVYYCARESYAGYDYYGHPIPYGMEPWGCGTLVTVSSGGGGSGGGGSEVQLLESGGGLVQPGGSLRLSCAVSGIDLSNNAISWVRQAPGKGLEYVGVIGNTGDTYYADSAKGRFTISRDSSKTTLYLQMNSLRAEDTAVYFCVRGPPSYSSSVKNIWGQGTLVTVSSASTKGPSVFPLAPSSKSTSGGTAALGCLVKDYFPEPVTVSWNSGALTSGVHTFPAVLQSSGLYSLSSVVTVPSSSLGTQTYICNVNHKPSNTKVDKKVEPKSCDKTHTCPPCPAPEAAGGPSVFLFPPKPKDTLMISRTPEVTCVVVSVSHEDPEVKFNWYVDGVEVHNAKTKPREEQYNSTYRVVSVLTVLHQDWLNGKEYKCKVSNKALPAPIEKTISKAKGQPREPQVYTLPPSREEMTKNQVSLSCAVKGFYPSDIAVEWESNGQPENNYKTTPPVLDSDGSFFLVSKLTVDKSRWQQGNVFSCSVMHEALHNRFTQKSLSLSPGK
light: DIQMTQSPSSVSASVGDRVTITCQSSQSVYNNNWLSWLQQKPGKAPKRLIYDASKLESGVPSRFSGSGSGTDFTLTISSVQPEDAATYYCAGGFTGNVYTFGGGTKVEIKRTVAAPSVFIFPPSDEQLKSGTASVVCLLNNFYPREAKVQWKVDNALQSGNSQESVTEQDSKDSTYSLSSTLTLSKADYEKHKVYACEVTHQGLSSPVTKSFNRGEC
notes: Chain B heavy: CALRB1114 spFv N-terminal of the CALRB421 heavy chain
B2: C3CRB135 CALRmut x CD3 bispecific antibody (bispecific antibody, human IgG1, kappa, L234A L235A)
heavy: EVQLLESGGGLVQPGGSLRLSCAVSGIDLSNNAISWVRQAPGKGLEYVGVIGNTGDTYYADSAKGRFTISRDSSKTTLYLQMNSLRAEDTAVYFCVRGPPSYSSSVKNIWGQGTLVTVSSASTKGPSVFPLAPSSKSTSGGTAALGCLVKDYFPEPVTVSWNSGALTSGVHTFPAVLQSSGLYSLSSVVTVPSSSLGTQTYICNVNHKPSNTKVDKKVEPKSCDKTHTCPPCPAPEAAGGPSVFLFPPKPKDTLMISRTPEVTCVVVSVSHEDPEVKFNWYVDGVEVHNAKTKPREEQYNSTYRVVSVLTVLHQDWLNGKEYKCKVSNKALPAPIEKTISKAKGQPREPQVYTLPPSREEMTKNQVSLSCAVKGFYPSDIAVEWESNGQPENNYKTTPPVLDSDGSFFLVSKLTVDKSRWQQGNVFSCSVMHEALHNRFTQKSLSLSPGKGGGGSGGGGSDIQMTQSPSTLSASVGDRVTITCQASQSLYNNKNLAWYQQKPGCAPKLLIYYASALASGVPSRFSGSGSGTEFTLTISSLQPDDFATYYCQGEFNCNSADCNSFGGGTKVEIKGGGSGGSGGCPPCGGSGGQVQLVQSGAEVKKPGASVKVSCKASGFSLSSYAMSWVRQAPGQGLEWMGVIDSGGTTYYAQKFQGRVTMTRDTSTSTVYMELSSLRSEDTAVYYCARESYAGYDYYGHPIPYGMEPWGCGTLVTVSSH
light: B1 light
scFv: B1 scFv
notes: Chain A heavy: CALRB421 heavy chain with CALRB1114 spFv at the C-terminus
B3: C3CRB137 CALRmut x CD3 bispecific antibody (bispecific antibody, human IgG1, kappa, L234A L235A)
scFv: B1 scFv
heavy: EVQLLESGGGLVQPGGSLRLSCAVSGIDLSNNAISWVRQAPGKGLEYVGVIGNTGDTYYADSAKGRFTISRDSSKTTLYLQMNSLRAEDTAVYFCVRGPPSYSSSVKNIWGQGTLVTVSSASTKGPSVFPLAPSSKSTSGGTAALGCLVKDYFPEPVTVSWNSGALTSGVHTFPAVLQSSGLYSLSSVVTVPSSSLGTQTYICNVNHKPSNTKVDKKVEPKSCGGGGSGGGGSEVQLLESGGGLVQPGGSLRLSCAVSGIDLSNNAISWVRQAPGKGLEYVGVIGNTGDTYYADSAKGRFTISRDSSKTTLYLQMNSLRAEDTAVYFCVRGPPSYSSSVKNIWGQGTLVTVSSASTKGPSVFPLAPSSKSTSGGTAALGCLVKDYFPEPVTVSWNSGALTSGVHTFPAVLQSSGLYSLSSVVTVPSSSLGTQTYICNVNHKPSNTKVDKKVEPKSCDKTHTCPPCPAPEAAGGPSVFLFPPKPKDTLMISRTPEVTCVVVSVSHEDPEVKFNWYVDGVEVHNAKTKPREEQYNSTYRVVSVLTVLHQDWLNGKEYKCKVSNKALPAPIEKTISKAKGQPREPQVYTLPPSREEMTKNQVSLSCAVKGFYPSDIAVEWESNGQPENNYKTTPPVLDSDGSFFLVSKLTVDKSRWQQGNVFSCSVMHEALHNRFTQKSLSLSPGK
light: B1 light
notes: Chain B heavy: two CALRB421 Fab heavy parts in tandem, Fc
B4: C3CRB134 CALRmut x CD3 bispecific antibody (bispecific antibody)
scFv: B1 scFv
heavy: EVQLLESGGGLVQPGGSLRLSCAVSGIDLSNNAISWVRQAPGKGLEYVGVIGNTGDTYYADSAKGRFTISRDSSKTTLYLQMNSLRAEDTAVYFCVRGPPSYSSSVKNIWGQGTLVTVSSASTKGPSVFPLAPSSKSTSGGTAALGCLVKDYFPEPVTVSWNSGALTSGVHTFPAVLQSSGLYSLSSVVTVPSSSLGTQTYICNVNHKPSNTKVDKKVEPKSCGGGGSGGGGSDIQMTQSPSTLSASVGDRVTITCQASQSLYNNKNLAWYQQKPGCAPKLLIYYASALASGVPSRFSGSGSGTEFTLTISSLQPDDFATYYCQGEFNCNSADCNSFGGGTKVEIKGGGSGGSGGCPPCGGSGGQVQLVQSGAEVKKPGASVKVSCKASGFSLSSYAMSWVRQAPGQGLEWMGVIDSGGTTYYAQKFQGRVTMTRDTSTSTVYMELSSLRSEDTAVYYCARESYAGYDYYGHPIPYGMEPWGCGTLVTVSSEPKSSDKTHTCPPCPAPEAAGGPSVFLFPPKPKDTLMISRTPEVTCVVVSVSHEDPEVKFNWYVDGVEVHNAKTKPREEQYNSTYRVVSVLTVLHQDWLNGKEYKCKVSNKALPAPIEKTISKAKGQPREPQVYTLPPSREEMTKNQVSLSCAVKGFYPSDIAVEWESNGQPENNYKTTPPVLDSDGSFFLVSKLTVDKSRWQQGNVFSCSVMHEALHNRFTQKSLSLSPGK
light: B1 light
notes: Chain B heavy: CALRB421 Fab heavy part, CALRB1114 spFv, Fc

Experiments:
[1] = molecular target: T1, CALRins5 (mutant calreticulin, 5 base …); test: flow cytometry on ELF-153 MPL CALRins5 cells, 1 h at 37 C, AF647 secondary antibody, Geometric mean
Protocol: (§1) FIGS. 27A-27F depict binding of different CALRmutxCD3 antibodies to CALRmut-negative or CALRmut-positive cells. Flow cytometry was used to evaluate CALRmutxCD3 binding to CALRmut-negative and CALRmut-positive cancer cells in vitro. CALRmutxCD3 antibodies were tested on a panel of cell lines, engineered to express MPL and CALRmut, after 1 hour 37° C. incubation, with subsequent incubation with secondary AF647-labeled antibody. Geometric mean fluorescence intensity of AF647 was measured to determine antibody binding.

[2] = molecular target: T2, wild-type calreticulin (CALRwt) …; test: flow cytometry on OCI-M2 MPL CALRwt cells, 1 h at 37 C, AF647 secondary antibody, Geometric mean
Protocol: as §1

[3] = molecular target: T1, CALRins5 (mutant calreticulin, 5 base …); test: flow cytometry on OCI-M2 MPL CALRins5 cells, 1 h at 37 C, AF647 secondary antibody, Geometric mean
Protocol: as §1

Row | Binder | EC50 (read off the curve) [1] [nM] | binding result [2] | EC50 (read off the curve) [3] [nM]
1 | B1 | ~1 | no binding (tested: 100 nM) | ~5
2 | B2 | ~1 | no binding (tested: 100 nM) | ~3
3 | B3 | ~1 | no binding (tested: 100 nM) | –
4 | B4 | ~1 | no binding (tested: 100 nM) | ~3
